Assay results reported in publication PMC3351189 (Nucleic Acids Research, 2012).

Target: WD-repeat protein-5 (WDR5), S22-334 (UniProt P61964 22-334)
Assay: ITC

Binder	Kd [nM]
GSARAEVHLRK [MLL1 Win motif peptide (MLL1Win)]	1130
GCARSEGFYTI [SET1B Win motif peptide (SET1BWin)]	100
GCARSEPKILT [MLL2 Win motif peptide (MLL2Win)]	160
GSARSEGYYPI [SET1A Win motif peptide (SET1AWin)]	260
GAARAEVYLRK [MLL4 Win motif peptide (MLL4Win)]	30
GSARAEPKMSA [MLL3 Win motif peptide (MLL3Win), C4708S substituted]	2030
